The record followed here is article PMC3892959.

One data set has as its target T1, rhVEGF165 (recombinant human vascular endothelial growth factor 165) (human, UniProt P15692-4 27-191). Briefly: affinity capillary electrophoresis.
On to GGAAGCCCGCTGTGACATCTGGAGCCGGTTCCCGAGCCA (ssDNA) [C 1], for which the Kd (commonly a measure of binding affinity in units of concentration) was found to be 49 nM.
Consider CGAGGATATCCGATTGTGGGTGACGTATTGGACACCTTCCCG (ssDNA) [C 2], for which the Kd turned out to be 21 nM.
With CCTTGTCATGATAGCTATGTTTCAGCCAACCATACCCGCT (ssDNA) [R 3], the equilibrium dissociation constant (Kd) is 22 nM.
On the same count and under the same terms, next, ATTCTGGGGAGTGGTACGTAAGCAGTGCCACCACGGTTAT (ssDNA) [R 2]: 72 nM; GTCTGTACCAATCTAAAAGTGTATATTATATCTACGAGCCT (ssDNA) [R 1]: 53 nM.
Turning to TGGCTGTTATTTCTCTCGGCCTCAGATCTTGGGCCCAACA (ssDNA) [C 3], the Kd was found to be 66 nM.

The next data set concerns the target T1, rhVEGF165 (recombinant human vascular …). Briefly: fluorescence polarization.
Regarding GGAAGCCCGCTGTGACATCTGGAGCCGGTTCCCGAGCCA (ssDNA) [C 1], the Kd was 101 nM.
On the same count and under the same terms, next, CGAGGATATCCGATTGTGGGTGACGTATTGGACACCTTCCCG (ssDNA) [C 2]: 162 nM; CCTTGTCATGATAGCTATGTTTCAGCCAACCATACCCGCT (ssDNA) [R 3]: 46 nM; ATTCTGGGGAGTGGTACGTAAGCAGTGCCACCACGGTTAT (ssDNA) [R 2]: 88 nM.
For the molecule GTCTGTACCAATCTAAAAGTGTATATTATATCTACGAGCCT (ssDNA) [R 1], the Kd turned out to be 100 nM.
Still for that read-out and setting: next, TGGCTGTTATTTCTCTCGGCCTCAGATCTTGGGCCCAACA (ssDNA) [C 3]: 164 nM.
